Data reported in paper PMC3625234, “The L-Cysteine Desulfurase NFS1 Is Localized in the Cytosol where it Provides the Sulfur for Molybdenum Cofactor Biosynthesis in Humans” (PLoS ONE, 2013).
Blank lines part the entries; values can stand above or below the molecule they belong to.

What was measured:
[1] = target: ECFP-MOCS3-RLD fusion (human); assay: FRET or BRET; time-gated FLIM-FRET in transiently transfected HeLa cells; ECFP donor lifetime (long component τ1 of a bi-exponential fit) with EYFP acceptor; N = 30–42 cells
[2] = target: MOCS3-RLD (purified) (human); assay: SPR; Biacore T200, CM5 chip, target immobilized by amine coupling (400–600 RU), 25°C, 30 µL/min, 20 mM phosphate, 150 mM NaCl, 0.005% Tween 20, pH 7.4; analytes 0.31–10 µM; global fit, 1:1 binding, mean of 3 measurements
NFS1Δ1-55/ISD11 complex = target: T1, NFS1Δ1-55/ISD11 complex (human, UniProt Q9Y697 56-457; Q9HD34 1-91); assay: as above; details: both partners purified
T1 construct: L-cysteine desulfurase NFS1, human, without residues 1-55; ISD11, human; source: E. coli BL21(DE3), co-expressed (pZM2 and pZM4), purified
T1 sequence (Q9Y697 56-457, stated change not applied, chain 1 of 2): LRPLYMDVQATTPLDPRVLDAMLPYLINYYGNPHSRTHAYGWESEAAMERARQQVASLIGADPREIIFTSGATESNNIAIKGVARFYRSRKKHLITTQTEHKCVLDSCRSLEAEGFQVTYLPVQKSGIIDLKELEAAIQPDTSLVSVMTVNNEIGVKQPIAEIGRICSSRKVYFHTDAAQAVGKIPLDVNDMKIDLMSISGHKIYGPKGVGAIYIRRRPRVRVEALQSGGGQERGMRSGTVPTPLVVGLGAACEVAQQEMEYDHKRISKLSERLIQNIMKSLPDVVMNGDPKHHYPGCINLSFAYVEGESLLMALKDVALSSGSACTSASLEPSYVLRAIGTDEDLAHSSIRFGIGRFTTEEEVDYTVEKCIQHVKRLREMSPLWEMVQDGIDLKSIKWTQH
T1 sequence (Q9HD34 whole entry, stated change not applied, chain 2 of 2, the tested form may be a part): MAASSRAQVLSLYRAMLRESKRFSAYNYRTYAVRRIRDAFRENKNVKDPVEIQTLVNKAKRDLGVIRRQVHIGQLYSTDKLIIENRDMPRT

[3] = target: T2, NFS1Δ1-55^C381A/ISD11 complex (human, UniProt Q9Y697 56-457; Q9HD34 1-91, C381A); assay: as above; details: both partners purified
T2 construct: L-cysteine desulfurase NFS1, human, without residues 1-55, with C381A; ISD11, human; without ISD11 it precipitated; source: E. coli BL21(DE3), co-expressed (pUMT13 and pZM4), purified
T2 sequence (Q9Y697 56-457 C381A, chain 1 of 2): as the sequence (Q9Y697 56-457, stated change not applied, chain 1 of 2) above, with C326A counted along it
T2 sequence (Q9HD34 whole entry, chain 2 of 2, the tested form may be a part): as the sequence (Q9HD34 whole entry, stated change not applied, chain 2 of 2, the tested form may be a part) above

- Kd [2]: 36 nM
Molecule: NFS1Δ1-55 (purified) (from UniProt Q9Y697 56-457) (domain or fragment)

- Kd [2]: 166 nM
Molecule: NFS1Δ1-55/ISD11 complex (from UniProt Q9Y697 56-457; Q9HD34 1-91)

- Kd (NFS1Δ1-55/ISD11 complex): 119 nM
- Kd [3]: 218 nM
B1: MOCS3 purified after expression in Sf9 cells (enzyme, human, UniProt O95396 1-460, looked up)
chain: MASREEVLALQAEVAQREEELNSLKQKLASALLAEQEPQPERLVPVSPLPPKAALSRDEILRYSRQLVLPELGVHGQLRLGTACVLIVGCGGLGCPLAQYLAAAGVGRLGLVDYDVVEMSNLARQVLHGEALAGQAKAFSAAASLRRLNSAVECVPYTQALTPATALDLVRRYDVVADCSDNVPTRYLVNDACVLAGRPLVSASALRFEGQITVYHYDGGPCYRCIFPQPPPAETVTNCADGGVLGVVTGVLGCLQALEVLKIAAGLGPSYSGSLLLFDALRGHFRSIRLRSRRLDCAACGERPTVTDLLDYEAFCGSSATDKCRSLQLLSPEERVSVTDYKRLLDSGAFHLLLDVRPQVEVDICRLPHALHIPLKHLERRDAESLKLLKEAIWEEKQGTQEGAAVPIYVICKLGNDSQKAVKILQSLSAAQELDPLTVRDVVGGLMAWAAKIDGTFPQY
notes: MOCS3, human; no tag is named here; also called pMMC30; source: Sf9 cells, purified

Second part, the molecule before the results:

Molecule: EYFP-NFS1Δ1-55 fusion (from UniProt Q9Y697 56-457) (domain or fragment)
- ECFP donor lifetime τ1 [1]: 2.9 ns
- reduction of the ECFP donor lifetime [1]: 17%

Molecule: NFS1Δ1-55^C381A/ISD11 complex (from UniProt Q9Y697 56-457; Q9HD34 1-91)
- Kd [2]: 241 nM
